This note sets out measurements from patent publication US12679878B2, “CRF2 receptor agonists and their use in therapy” (SANOFI, priority 2020, dated 2026).

One experiment has as its target rat CRF2R α receptor (rat, UniProt P47866 20-411). Nature of the experiment: cell-based or functional assay.
Experiment [1] addresses T1, anti-target CRF1R receptor (UniProt P34998 24-415, limits assumed).
T1 sequence (looked up): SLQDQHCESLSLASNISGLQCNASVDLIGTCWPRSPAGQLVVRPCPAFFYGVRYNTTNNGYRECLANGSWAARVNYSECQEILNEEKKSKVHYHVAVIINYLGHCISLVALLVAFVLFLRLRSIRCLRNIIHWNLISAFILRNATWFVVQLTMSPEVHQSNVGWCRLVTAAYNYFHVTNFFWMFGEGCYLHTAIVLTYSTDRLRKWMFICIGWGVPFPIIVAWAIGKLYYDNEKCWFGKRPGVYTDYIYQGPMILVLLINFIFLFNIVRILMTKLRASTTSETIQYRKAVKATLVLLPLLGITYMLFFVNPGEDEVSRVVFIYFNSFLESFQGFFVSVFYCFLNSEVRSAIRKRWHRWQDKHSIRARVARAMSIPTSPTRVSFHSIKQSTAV
Nature of the experiment: cell-based or functional assay.

Starred links: 1 amine or outer side, 2 acyl side, 3 side chain; linkers in the order of their positions; H or OH if unused. Non-standard residues stand in square brackets, D forms with d. Groups on a side chain read outwards from the residue. No end group written: not given here. *: point of attachment. C18 diacid = O=C(O)CCCCCCCCCCCCCCCCC(=O)*; γGlu = O=C(O)[C@H](CCC(=O)[*:2])N[*:1]; AEEA = NCCOCCOCC(=O)O; Aib = CC(C)(N)C(=O)O

Sequence of rat CRF2R α receptor (P47866 20-411): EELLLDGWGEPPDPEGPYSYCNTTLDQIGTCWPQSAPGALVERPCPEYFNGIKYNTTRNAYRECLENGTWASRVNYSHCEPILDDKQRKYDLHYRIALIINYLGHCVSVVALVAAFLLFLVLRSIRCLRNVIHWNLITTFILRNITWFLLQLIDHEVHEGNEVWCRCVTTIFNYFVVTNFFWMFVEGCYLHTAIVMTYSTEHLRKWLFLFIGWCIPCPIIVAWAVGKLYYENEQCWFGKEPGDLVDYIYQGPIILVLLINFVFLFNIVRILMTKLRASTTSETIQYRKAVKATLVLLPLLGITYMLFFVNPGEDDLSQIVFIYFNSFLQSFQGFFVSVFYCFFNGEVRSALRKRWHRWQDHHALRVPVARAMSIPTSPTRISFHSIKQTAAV

B1: peptide of SEQ ID NO: 132 (peptide)
peptide: IVLSLD[dV]PIKLK([AEEA-AEEA-γGlu-C18 diacid])QILLEQERQK[Aib]QREQAEKNKQILERV-NH2
modifications: N-terminus assumed
SMILES: CC[C@H](C)[C@H](N)C(=O)N[C@H](C(=O)N[C@@H](CC(C)C)C(=O)N[C@@H](CO)C(=O)N[C@@H](CC(C)C)C(=O)N[C@@H](CC(=O)O)C(=O)N[C@@H](C(=O)N1CCC[C@H]1C(=O)N[C@H](C(=O)N[C@@H](CCCCN)C(=O)N[C@@H](CC(C)C)C(=O)N[C@@H](CCCCNC(=O)COCCOCCNC(=O)COCCOCCNC(=O)CC[C@H](NC(=O)CCCCCCCCCCCCCCCCC(=O)O)C(=O)O)C(=O)N[C@@H](CCC(N)=O)C(=O)N[C@H](C(=O)N[C@@H](CC(C)C)C(=O)N[C@@H](CC(C)C)C(=O)N[C@@H](CCC(=O)O)C(=O)N[C@@H](CCC(N)=O)C(=O)N[C@@H](CCC(=O)O)C(=O)N[C@@H](CCCNC(=N)N)C(=O)N[C@@H](CCC(N)=O)C(=O)N[C@@H](CCCCN)C(=O)NC(C)(C)C(=O)N[C@@H](CCC(N)=O)C(=O)N[C@@H](CCCNC(=N)N)C(=O)N[C@@H](CCC(=O)O)C(=O)N[C@@H](CCC(N)=O)C(=O)N[C@@H](C)C(=O)N[C@@H](CCC(=O)O)C(=O)N[C@@H](CCCCN)C(=O)N[C@@H](CC(N)=O)C(=O)N[C@@H](CCCCN)C(=O)N[C@@H](CCC(N)=O)C(=O)N[C@H](C(=O)N[C@@H](CC(C)C)C(=O)N[C@@H](CCC(=O)O)C(=O)N[C@@H](CCCNC(=N)N)C(=O)N[C@H](C(N)=O)C(C)C)[C@@H](C)CC)[C@@H](C)CC)[C@@H](C)CC)C(C)C)C(C)C
Consider B1, for which the “EC50 [nM], 0% HSA (cAMP, A7R5 cells)” value in the experiment with rat CRF2R α receptor turned out to be 0.79 nM. In experiment [1], the “EC50[nM] 0% HSA (cAMP, CRF1R-overexpression CHO cells)” value (“EC50[nM] 0% HSA” below) was greater than 1000 nM and the “Emax (%) (cAMP, CRF1R-overexpression CHO cells)” value (“Emax (%)” for short) was found to be 36.9%.

B2: peptide of SEQ ID NO: 99 (peptide)
peptide: IVLSLDVPIKLK([AEEA-AEEA-γGlu-C18 diacid])KILLKQERQKK[Aib]REQAEKNKQILAQV-NH2
modifications: N-terminus assumed
SMILES: CC[C@H](C)[C@H](N)C(=O)N[C@H](C(=O)N[C@@H](CC(C)C)C(=O)N[C@@H](CO)C(=O)N[C@@H](CC(C)C)C(=O)N[C@@H](CC(=O)O)C(=O)N[C@H](C(=O)N1CCC[C@H]1C(=O)N[C@H](C(=O)N[C@@H](CCCCN)C(=O)N[C@@H](CC(C)C)C(=O)N[C@@H](CCCCNC(=O)COCCOCCNC(=O)COCCOCCNC(=O)CC[C@H](NC(=O)CCCCCCCCCCCCCCCCC(=O)O)C(=O)O)C(=O)N[C@@H](CCCCN)C(=O)N[C@H](C(=O)N[C@@H](CC(C)C)C(=O)N[C@@H](CC(C)C)C(=O)N[C@@H](CCCCN)C(=O)N[C@@H](CCC(N)=O)C(=O)N[C@@H](CCC(=O)O)C(=O)N[C@@H](CCCNC(=N)N)C(=O)N[C@@H](CCC(N)=O)C(=O)N[C@@H](CCCCN)C(=O)N[C@@H](CCCCN)C(=O)NC(C)(C)C(=O)N[C@@H](CCCNC(=N)N)C(=O)N[C@@H](CCC(=O)O)C(=O)N[C@@H](CCC(N)=O)C(=O)N[C@@H](C)C(=O)N[C@@H](CCC(=O)O)C(=O)N[C@@H](CCCCN)C(=O)N[C@@H](CC(N)=O)C(=O)N[C@@H](CCCCN)C(=O)N[C@@H](CCC(N)=O)C(=O)N[C@H](C(=O)N[C@@H](CC(C)C)C(=O)N[C@@H](C)C(=O)N[C@@H](CCC(N)=O)C(=O)N[C@H](C(N)=O)C(C)C)[C@@H](C)CC)[C@@H](C)CC)[C@@H](C)CC)C(C)C)C(C)C
For the molecule B2, the “EC50 [nM], 0% HSA (cAMP, A7R5 cells)” value with rat CRF2R α receptor amounted to 0.62 nM. For the same molecule, in experiment [1], the “EC50[nM] 0% HSA” value is greater than 1000 nM and the “Emax (%)” value was determined as 3.25%.

B3: peptide of SEQ ID NO: 100 (peptide)
peptide: IVLSLDVPIKLK([AEEA-AEEA-γGlu-C18 diacid])KILLKQERQKK[Aib]REQAETN[Aib]QILAQV-NH2
modifications: N-terminus assumed
SMILES: CC[C@H](C)[C@H](N)C(=O)N[C@H](C(=O)N[C@@H](CC(C)C)C(=O)N[C@@H](CO)C(=O)N[C@@H](CC(C)C)C(=O)N[C@@H](CC(=O)O)C(=O)N[C@H](C(=O)N1CCC[C@H]1C(=O)N[C@H](C(=O)N[C@@H](CCCCN)C(=O)N[C@@H](CC(C)C)C(=O)N[C@@H](CCCCNC(=O)COCCOCCNC(=O)COCCOCCNC(=O)CC[C@H](NC(=O)CCCCCCCCCCCCCCCCC(=O)O)C(=O)O)C(=O)N[C@@H](CCCCN)C(=O)N[C@H](C(=O)N[C@@H](CC(C)C)C(=O)N[C@@H](CC(C)C)C(=O)N[C@@H](CCCCN)C(=O)N[C@@H](CCC(N)=O)C(=O)N[C@@H](CCC(=O)O)C(=O)N[C@@H](CCCNC(=N)N)C(=O)N[C@@H](CCC(N)=O)C(=O)N[C@@H](CCCCN)C(=O)N[C@@H](CCCCN)C(=O)NC(C)(C)C(=O)N[C@@H](CCCNC(=N)N)C(=O)N[C@@H](CCC(=O)O)C(=O)N[C@@H](CCC(N)=O)C(=O)N[C@@H](C)C(=O)N[C@@H](CCC(=O)O)C(=O)N[C@H](C(=O)N[C@@H](CC(N)=O)C(=O)NC(C)(C)C(=O)N[C@@H](CCC(N)=O)C(=O)N[C@H](C(=O)N[C@@H](CC(C)C)C(=O)N[C@@H](C)C(=O)N[C@@H](CCC(N)=O)C(=O)N[C@H](C(N)=O)C(C)C)[C@@H](C)CC)[C@@H](C)O)[C@@H](C)CC)[C@@H](C)CC)C(C)C)C(C)C
Turning to B3, the “EC50 [nM], 0% HSA (cAMP, A7R5 cells)” value with rat CRF2R α receptor was determined as 7.52 nM. Also, in experiment [1], the “EC50[nM] 0% HSA” value was greater than 1000 nM and the “Emax (%)” value was found to be 5.06%.

B4: peptide of SEQ ID NO: 87 (peptide)
peptide: IVLSLDVPIKLK([AEEA-AEEA-γGlu-C18 diacid])QILLKQERQKKQREKAKTNKQILAQV-NH2
modifications: N-terminus assumed
SMILES: CC[C@H](C)[C@H](N)C(=O)N[C@H](C(=O)N[C@@H](CC(C)C)C(=O)N[C@@H](CO)C(=O)N[C@@H](CC(C)C)C(=O)N[C@@H](CC(=O)O)C(=O)N[C@H](C(=O)N1CCC[C@H]1C(=O)N[C@H](C(=O)N[C@@H](CCCCN)C(=O)N[C@@H](CC(C)C)C(=O)N[C@@H](CCCCNC(=O)COCCOCCNC(=O)COCCOCCNC(=O)CC[C@H](NC(=O)CCCCCCCCCCCCCCCCC(=O)O)C(=O)O)C(=O)N[C@@H](CCC(N)=O)C(=O)N[C@H](C(=O)N[C@@H](CC(C)C)C(=O)N[C@@H](CC(C)C)C(=O)N[C@@H](CCCCN)C(=O)N[C@@H](CCC(N)=O)C(=O)N[C@@H](CCC(=O)O)C(=O)N[C@@H](CCCNC(=N)N)C(=O)N[C@@H](CCC(N)=O)C(=O)N[C@@H](CCCCN)C(=O)N[C@@H](CCCCN)C(=O)N[C@@H](CCC(N)=O)C(=O)N[C@@H](CCCNC(=N)N)C(=O)N[C@@H](CCC(=O)O)C(=O)N[C@@H](CCCCN)C(=O)N[C@@H](C)C(=O)N[C@@H](CCCCN)C(=O)N[C@H](C(=O)N[C@@H](CC(N)=O)C(=O)N[C@@H](CCCCN)C(=O)N[C@@H](CCC(N)=O)C(=O)N[C@H](C(=O)N[C@@H](CC(C)C)C(=O)N[C@@H](C)C(=O)N[C@@H](CCC(N)=O)C(=O)N[C@H](C(N)=O)C(C)C)[C@@H](C)CC)[C@@H](C)O)[C@@H](C)CC)[C@@H](C)CC)C(C)C)C(C)C
B4: the “EC50 [nM], 0% HSA (cAMP, A7R5 cells)” value with rat CRF2R α receptor worked out at 1.49 nM. In addition, in experiment [1], the “EC50[nM] 0% HSA” value is greater than 1000 nM and the “Emax (%)” value is -0.2%.
